In PMC4227695, “Combining Anti-ERBB3 Antibodies Specific for Domain I and Domain III Enhances the Anti-Tumor Activity over the Individual Monoclonal Antibodies” (PLoS ONE, 2014):

How the values were obtained:
[1] = biological target: T1, ERBB3 on BT-474 cells (Homo sapiens, UniProt P21860); assay: flow cytometry on cells; 0, 0.5, 2, 5 ug IgG with BT-474 cells (250,000 cells/assay); detected with FITC-conjugated anti-human Fc; conditions: one partner purified
T1 construct: ERBB3/HER3 receptor on the surface of BT-474 breast cancer cells; Also used for the functional rows, where the cells were BT-474, NCI-N87 and ACHN; also called HER3; source: endogenous, BT-474 cells
T1 sequence (P21860 20-1342): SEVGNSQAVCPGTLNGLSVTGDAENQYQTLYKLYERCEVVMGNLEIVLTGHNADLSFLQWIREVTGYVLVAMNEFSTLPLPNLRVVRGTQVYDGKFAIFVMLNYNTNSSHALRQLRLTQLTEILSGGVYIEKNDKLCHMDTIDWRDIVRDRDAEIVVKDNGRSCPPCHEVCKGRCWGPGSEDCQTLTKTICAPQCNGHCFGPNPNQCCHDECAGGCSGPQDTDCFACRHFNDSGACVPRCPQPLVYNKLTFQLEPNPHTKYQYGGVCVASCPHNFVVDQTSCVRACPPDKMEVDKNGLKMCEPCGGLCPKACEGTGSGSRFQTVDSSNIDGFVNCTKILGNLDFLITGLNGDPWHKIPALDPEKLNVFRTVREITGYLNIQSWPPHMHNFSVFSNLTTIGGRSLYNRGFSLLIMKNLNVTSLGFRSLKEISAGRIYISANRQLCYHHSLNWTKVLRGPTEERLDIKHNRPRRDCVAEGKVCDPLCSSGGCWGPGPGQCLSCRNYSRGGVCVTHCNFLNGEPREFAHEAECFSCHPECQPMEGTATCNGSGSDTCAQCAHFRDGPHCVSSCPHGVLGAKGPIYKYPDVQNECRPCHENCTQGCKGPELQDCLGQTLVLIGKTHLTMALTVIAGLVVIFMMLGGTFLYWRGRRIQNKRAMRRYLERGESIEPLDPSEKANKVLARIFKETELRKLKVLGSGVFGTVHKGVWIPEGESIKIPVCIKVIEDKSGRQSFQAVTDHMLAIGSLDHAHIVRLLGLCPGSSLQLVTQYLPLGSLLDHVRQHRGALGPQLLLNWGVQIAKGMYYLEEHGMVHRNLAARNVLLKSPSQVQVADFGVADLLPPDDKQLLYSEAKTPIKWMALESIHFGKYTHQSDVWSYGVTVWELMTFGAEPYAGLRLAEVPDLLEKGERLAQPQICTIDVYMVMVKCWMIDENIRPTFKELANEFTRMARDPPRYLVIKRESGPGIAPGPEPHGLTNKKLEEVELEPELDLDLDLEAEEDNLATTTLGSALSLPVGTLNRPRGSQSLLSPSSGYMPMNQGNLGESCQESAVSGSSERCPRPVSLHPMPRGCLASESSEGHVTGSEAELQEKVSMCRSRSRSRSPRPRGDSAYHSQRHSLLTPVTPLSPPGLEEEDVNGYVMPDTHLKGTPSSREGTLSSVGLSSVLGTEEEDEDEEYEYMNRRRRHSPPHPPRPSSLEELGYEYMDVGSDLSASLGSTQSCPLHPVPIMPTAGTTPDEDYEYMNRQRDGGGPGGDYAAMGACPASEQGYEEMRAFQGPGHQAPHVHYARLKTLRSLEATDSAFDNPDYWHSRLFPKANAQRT

[2] = biological target: T2, intact ERBB3 extracellular domain (dI-IV, aa20-639) (Homo sapiens, UniProt P21860); assay: ELISA; apparent; ERBB3 extracellular domain immobilised; 4-fold serial dilutions of IgG (1333-0.02 nM); detected with HRP-conjugated anti-human Fc
T2 construct: ERBB3/HER3 extracellular domain, domains I-IV, aa20-639; also called ERBB3 ECD; intact ERBB3 ECD; source: purified from culture supernatant by IMAC (HisTrap)
T2 sequence (P21860 20-639): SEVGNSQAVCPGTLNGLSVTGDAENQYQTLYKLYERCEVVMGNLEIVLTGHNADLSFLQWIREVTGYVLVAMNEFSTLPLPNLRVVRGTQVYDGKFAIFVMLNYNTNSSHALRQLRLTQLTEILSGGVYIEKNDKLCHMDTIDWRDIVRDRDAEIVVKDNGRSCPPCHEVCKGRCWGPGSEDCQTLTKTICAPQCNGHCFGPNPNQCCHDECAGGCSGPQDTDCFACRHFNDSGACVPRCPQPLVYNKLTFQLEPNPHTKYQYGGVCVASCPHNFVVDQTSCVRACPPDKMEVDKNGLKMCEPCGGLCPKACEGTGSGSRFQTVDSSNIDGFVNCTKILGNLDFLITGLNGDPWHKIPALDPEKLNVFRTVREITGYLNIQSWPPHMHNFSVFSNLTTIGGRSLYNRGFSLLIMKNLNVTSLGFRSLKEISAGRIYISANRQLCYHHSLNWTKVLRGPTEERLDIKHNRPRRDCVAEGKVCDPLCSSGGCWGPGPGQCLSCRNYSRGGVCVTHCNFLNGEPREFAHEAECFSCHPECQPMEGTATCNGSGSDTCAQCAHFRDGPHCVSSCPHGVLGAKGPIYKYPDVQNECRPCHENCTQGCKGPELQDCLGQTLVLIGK

[3] = biological target: T3, ERBB3 extracellular domain I (dI, aa20-207) (Homo sapiens, UniProt P21860); assay: native gel or EMSA; IgG (30-40 ug) with dI at 1.5x and 3x molar ratios of IgG:dI, 4 uL reaction, 30 min at room temperature; 12.5% native acrylamide gel (PhastGel), stained; loss of free dI read; conditions: both partners purified
T3 construct: ERBB3/HER3 domain I, aa20-207; Sub-cloned into pSEC-Tag2/HygroA (vector-supplied secretion signal; the vector may add further tag residues); source: HEK293, stably expressed, purified from culture supernatant (IMAC, HisTrap)
T3 sequence (P21860 20-207): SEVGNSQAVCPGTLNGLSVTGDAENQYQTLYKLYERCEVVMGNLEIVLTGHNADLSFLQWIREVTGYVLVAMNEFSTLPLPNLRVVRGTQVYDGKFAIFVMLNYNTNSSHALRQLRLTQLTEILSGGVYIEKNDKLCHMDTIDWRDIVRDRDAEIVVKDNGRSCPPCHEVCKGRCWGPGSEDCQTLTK

[4] = biological target: T2, intact ERBB3 extracellular domain …; assay: pull-down; called immunoprecipitation: scFv coupled to AminoLink agarose (about 80 ug scFv, 20-50 fold excess) incubated 1 h at room temperature with 5 ug ERBB3 ECD fragment in 40 uL; washed 3x with PBS; supernatant and pellet fractions on SDS-PAGE; conditions: both partners purified
[5] = biological target: T4, ERBB3 extracellular domain III (dIII, aa311-477) (Homo sapiens, UniProt P21860); assay: as above; conditions: both partners purified
T4 construct: ERBB3/HER3 domain III, aa311-477; Subcloned into pMTBiPV5HISa (vector-supplied secretion signal; the vector may add further tag residues); source: S2 cells, stably expressed, purified from culture supernatant (IMAC, HisTrap)
T4 sequence (P21860 311-477): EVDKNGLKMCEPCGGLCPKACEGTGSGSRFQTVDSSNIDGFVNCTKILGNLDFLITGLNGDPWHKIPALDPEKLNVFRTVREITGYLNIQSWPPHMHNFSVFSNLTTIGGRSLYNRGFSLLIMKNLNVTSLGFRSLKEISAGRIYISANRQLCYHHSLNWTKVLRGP

[6] = biological target: T5, ERBB3 extracellular domains III-IV (dIII-IV, aa310-616) (Homo sapiens, UniProt P21860); assay: as above; conditions: both partners purified
T5 construct: ERBB3/HER3 domains III-IV, aa310-616; source: purified from culture supernatant by IMAC (HisTrap)
T5 sequence (P21860 310-616): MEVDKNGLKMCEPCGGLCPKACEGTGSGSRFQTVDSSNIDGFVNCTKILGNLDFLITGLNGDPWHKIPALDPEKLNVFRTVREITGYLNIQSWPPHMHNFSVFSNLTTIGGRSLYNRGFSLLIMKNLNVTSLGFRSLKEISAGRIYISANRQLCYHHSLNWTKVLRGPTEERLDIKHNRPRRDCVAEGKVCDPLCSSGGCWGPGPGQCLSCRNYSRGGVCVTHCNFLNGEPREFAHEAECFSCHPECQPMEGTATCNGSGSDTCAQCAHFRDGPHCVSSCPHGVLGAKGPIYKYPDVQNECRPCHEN

[7] = biological target: T3, ERBB3 extracellular domain I (dI, …); assay: as above; conditions: both partners purified
[8] = biological target: T6, ERBB3 extracellular domains I-II (dI-II, aa20-329) (Homo sapiens, UniProt P21860); assay: as above; conditions: both partners purified
T6 construct: ERBB3/HER3 domains I-II, aa20-329; Sub-cloned into pSEC-Tag2/HygroA (vector-supplied secretion signal; the vector may add further tag residues); source: HEK293, stably expressed, purified from culture supernatant (IMAC, HisTrap)
T6 sequence (P21860 20-329): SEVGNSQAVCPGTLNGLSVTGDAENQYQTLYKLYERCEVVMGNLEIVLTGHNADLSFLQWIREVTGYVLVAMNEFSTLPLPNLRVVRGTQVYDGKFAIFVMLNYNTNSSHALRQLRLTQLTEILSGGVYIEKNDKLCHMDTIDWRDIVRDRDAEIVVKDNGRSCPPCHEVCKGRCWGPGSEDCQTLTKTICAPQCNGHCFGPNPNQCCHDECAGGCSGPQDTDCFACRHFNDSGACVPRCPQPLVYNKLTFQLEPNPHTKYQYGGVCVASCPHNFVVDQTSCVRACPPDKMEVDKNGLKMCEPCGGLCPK

B1: A5 anti-ERBB3 IgG (human IgG1 format) (antibody, V domains shown)
VH: QVQLVQSGGGLVKPGGSLRLSCAASGFSFNTYDMNWVRQAPGKGLEWVSSISSSSSYIYYADSVKGRFTISRDNAKNSLYLQMNSLRAEDTAVYYCARDGVATTPFDYWGQGTLVTVSS
VL: QSVLTQPPSVSGAPGQRVTISCTGSSSNIGAGYDVHWYQQLPGTAPKLLIYGNSNRPSGVPDRFSGSKSGTSASLAITGLQAEDEADYYCQSYDSSLSALFGGGTKLTVL
notes: A5 variable heavy (Vh) domain; human IgG1 heavy chain constant region; A5 variable light (Vl) domain; light chain constant domain; IgG1; also called A5 IgG; source: purified from conditioned media by protein A chromatography; copies: 2 + 2
binding result [1]: binds | Kd [2]: 11.1 nM | binding result [3]: no binding (tested: 1.5x and 3x Molar excess of antibody)

B2: A5 anti-ERBB3 single-chain Fv (scFv, V domains shown)
VH: B1 VH
VL: B1 VL
notes: A5 variable heavy (Vh) domain; linker of the scFv; A5 variable light (Vl) domain; Coupled to AminoLink agarose in the immunoprecipitations; also called A5 scFv
binding result [4]: binds | binding result [5]: binds | binding result [6]: binds

B3: F4 anti-ERBB3 IgG (human IgG1 format) (antibody, V domains shown)
VH: QVQLQESGGGLVKPGGSLRLSCAASGFTFSSYAMSWVRQAPGKGLEWVSTISGSGGSTYYADSVKGRFTISRDNSKNTLYLQMNSLRAEDTAVYYCAKGYSSSWSEVASGYWGQGTLVTVSS
VL: DIVMTQSPSSLSASVGDRVTITCRASQGIRNDLGWYQQKAGKAPKLLIYAASSLQSGVPSRFSGSGSGTDFTLTISSLQPDDFATYFCQQAHSFPPTFGGGTKVEIK
notes: F4 variable heavy (Vh) domain; human IgG1 heavy chain constant region; F4 variable light (Vl) domain; light chain constant domain; IgG1; also called F4 IgG; source: purified from conditioned media by protein A chromatography; copies: 2 + 2
binding result [1]: binds | Kd [2]: 4.8 nM | binding result [3]: binds

B4: F4 anti-ERBB3 single-chain Fv (scFv, V domains shown)
VH: B3 VH
VL: B3 VL
notes: F4 variable heavy (Vh) domain; linker of the scFv; F4 variable light (Vl) domain; Coupled to AminoLink agarose in the immunoprecipitations; also called F4 scFv
binding result [4]: binds | binding result [7]: binds | binding result [8]: binds
